Results taken from article PMC6695731, “Application of a Substrate-Mediated Selection with c-Src Tyrosine Kinase to a DNA-Encoded Chemical Library” (Molecules, 2019).
Read-outs that look alike come from different tables or passages of the source.

Key:
[1] = test system: NC(=O)CN(CCCCCCO)C(=O)c1ccc(CNC(=O)[C@H](Cc2ccc(O)cc2)NC(=O)CCc2ccc(O)cc2)cc1; test: ADP-Glo assay of compounds as c-Src substrates (ADP production); format: biochemical; details: other: ADP-Glo assay, compound as substrate of c-Src; pH 7.5; 30.0 °C
Experimental: (§1) Hit molecules were initially characterized as substrates for c-Src using the luciferase-based ADP-Glo assay (Promega). All six molecules appeared to be efficient substrates for Src kinase.
(§2) Kinase reaction was performed as follows 1x kinase buffer (25 mM Tris-HCl (pH 7.5), 2 mM dithiothreitol (DTT), 0.1 mM Na3VO4, 10 mM MgCl2), 1 mM ATP, different concentrations (1 μM to 100 μM) of substrates (either off DNA or on DNA hit molecules), and 12 nM rSrc by incubation for 2 h at 30 °C. After that, distinct 55mers were annealed to each kinase reaction, as previously described. The annealed reactions were incubated with anti Pho-Tyr loaded protein G magnetic bead at RT for 30 min. After washing by three times 20 μL 1xPBST with 1 mg/mL BSA, 1 mg/mL tRNAs), the captured samples were eluted by 20 μL of 1 mM phenylphosphate. The resulting supernatant was then used as a template in qPCR.
(§3) After the kinase reaction was performed as previous section, the reaction mixture (5 μL) was incubated with 5 µL of ADP-Glo™ reagent at RT for 40 min and then add 10 µL of kinase detection reagent at RT for 1 h. The luminescence was measure by plate reader.

[2] = test system: C[C@H](NC(=O)c1ccc(CN(CC2CC2)C(=O)CCO)cc1)C(=O)N(CCc1ccc(O)cc1)CC(N)=O; test: as above; format: biochemical; details: other: Table S3, ADP-Glo assay of SrcDEL10 derivatives, enzyme Src; pH 7.5; 30.0 °C
Experimental: as §1, §2, §3

[3] = test system: NC(=O)C(Cc1ccc(O)cc1)NC(=O)CN(CCCCCCO)C(=O)C1Cc2ccccc2N1C(=O)CCc1ccc(O)cc1; test: as above; format: biochemical; details: other: ADP-Glo assay, compound as substrate of c-Src; pH 7.5; 30.0 °C
Experimental: as §1, §2, §3

[4] = test system: O=C(O)C[C@H](NC(=O)c1ccc(CN(CC2CC2)C(=O)CCO)cc1)C(=O)NCCc1ccc(O)cc1; test: as above; format: biochemical; details: other: Table S3, ADP-Glo assay of SrcDEL10 derivatives, enzyme Src; pH 7.5; 30.0 °C
Experimental: as §1, §2, §3

[5] = test system: NC(=O)[C@H](Cc1cccnc1)NC(=O)CN(CC1CC1)C(=O)CCc1ccc(O)cc1; test: as above; format: biochemical; details: other: ADP-Glo assay, compound as substrate of c-Src; pH 7.5; 30.0 °C
Experimental: as §1, §2, §3

[6] = test system: N=C(N)NCCC[C@H](NC(=O)CN(Cc1ccco1)C(=O)CCO)C(=O)N(CCc1ccc(O)cc1)Cc1ccc(C(N)=O)cc1; test: as above; format: biochemical; details: other: ADP-Glo assay, compound as substrate of c-Src; pH 7.5; 30.0 °C
Experimental: as §1, §2, §3

[7] = test system: NC(=O)CN(CCc1ccc(O)cc1)C(=O)[C@H](CC(=O)O)NC(=O)c1cccc(CN(CC2CC2)C(=O)CCO)c1; test: as above; format: biochemical; details: other: Table S3, ADP-Glo assay of SrcDEL10 derivatives, enzyme Src; pH 7.5; 30.0 °C
Experimental: as §1, §2, §3

[8] = test system: NC(=O)CN(CCc1ccc(O)cc1)C(=O)[C@H](CCC(=O)O)NC(=O)c1ccc(CN(CC2CC2)C(=O)CCO)cc1; test: as above; format: biochemical; details: other: Table S3, ADP-Glo assay of SrcDEL10 derivatives, enzyme Src; pH 7.5; 30.0 °C
Experimental: as §1, §2, §3

[9] = test system: NC(=O)C(Cc1cccnc1)NC(=O)CN(CCc1ccc(O)cc1)C(=O)C1Cc2c([nH]c3ccccc23)CN1C(=O)CCO; test: as above; format: biochemical; details: other: ADP-Glo assay, compound as substrate of c-Src; pH 7.5; 30.0 °C
Experimental: as §1, §2, §3

[10] = test system: NC(=O)C1Cc2ccc(O)cc2CN1C(=O)C(CC(=O)O)NC(=O)c1ccc(CN(CC2CC2)C(=O)CCO)cc1; test: as above; format: biochemical; details: other: Table S3, ADP-Glo assay of SrcDEL10 derivatives, enzyme Src; pH 7.5; 30.0 °C
Experimental: as §1, §2, §3

[11] = test system: NC(=O)CN(CCc1ccc(O)cc1)C(=O)[C@H](CC(=O)O)NC(=O)c1ccc(CN(CC2CC2)C(=O)CCO)cc1; test: as above; format: biochemical; details: other: ADP-Glo assay, compound as substrate of c-Src; pH 7.5; 30.0 °C
Experimental: as §1, §2, §3

[12] = test system: NC(=O)[C@H](Cc1ccc(O)cc1)NC(=O)[C@H](CC(=O)O)NC(=O)c1ccc(CN(CC2CC2)C(=O)CCO)cc1; test: as above; format: biochemical; details: other: Table S3, ADP-Glo assay of SrcDEL10 derivatives, enzyme Src; pH 7.5; 30.0 °C
Experimental: as §1, §2, §3

[13] = test system: NC(=O)CN(CCc1ccccc1)C(=O)[C@H](CC(=O)O)NC(=O)c1ccc(CN(CC2CC2)C(=O)CCO)cc1; test: as above; format: biochemical; details: pH 7.5, 30.0 °C
Experimental: as §1, §2, §3

[14] = target: T1, c-Src (Homo sapiens, UniProt P12931); test: as above; format: biochemical; details: for Vmax / Km: Table S3, ADP-Glo assay of SrcDEL10 derivatives, enzyme Src; for activity as substrate in ADP-Glo assay (words): SrcDEL10 derivatives compared with parental compound
Experimental: as §1, §2, §3

[15] = target: T1, c-Src; test: NADH-based coupled enzyme assay detecting ADP generation; format: biochemical; details: 1 mM ATP, 100 µM compound, 12 nM Src, 30 °C, 3 h
Experimental: To confirm this, compounds were tested with an NADH-based, coupled enzyme assay that also detects ADP generation. […] This additionally supported that the ADP-Glo activity observed was due to activation of ATP hydrolysis and not phosphotransfer to these compounds.
Kinase reaction was performed as follows 1x kinase buffer (25 mM Tris-HCl (pH 7.5), 2 mM dithiothreitol (DTT), 0.1 mM Na3VO4, 10 mM MgCl2), 1 mM ATP, 100 μM peptides and 12 nM Src at 30 °C for 3 h. The kinase reaction mixture was incubated with 30 unit/mL lactic dehydrogenase (LDH), 20 unit/mL pyruvate kinase (PK), 2 mM phosphoenolpyruvate (PEP), and 1 mM NADH. The absorbance of NADH was monitored at 340 nm.
Figure S8. NADH Coupled Assay of Hit Molecules with c-Src. Samples were composed of 1 mM ATP,
100 µM putative substrate molecules, and 12 nM c-Src kinase at 30 C for 3 hours. Full method description
is provided in Methods and Materials 4.6 NADH assay.

[16] = target: T1, c-Src; test: radiolabel (32P-ATP) inhibition assay of LYNtide phosphorylation by c-Src; format: biochemical; details: 32P-ATP 50 µM, biotinylated-LYNtide 50 µM
Experimental: The original six off-DNA hits were tested for inhibition of c-Src activity. For these tests, we used ^32P-ATP as a substrate and detected phosphorylation levels of a biotinylated-LYNtide substrate after adsorption to streptavidin coated membranes. This assay should not be affected by activation of ATP hydrolysis or phosphotransfer to the small molecules. […] There was no apparent correlation of these values to the Km or kcat values in the prior assays as substrates.
Each hit molecule was preincubated with 1.2 nM c-Src at 30 °C for 30 min. The kinase reaction was initiated with the addition of 50 μM LYNtide and 50 μM ATP with 0.15 μCi gamma ^32P ATP at 30 °C for 10 min. The kinase reaction samples (2 µL) were spotted on P81 filter paper consisting of 1.5 cm squares. After air dry, the P81 papers were washed 4 times with 0.5% phosphoric acid for 5 min each. The P81 papers were washed one time with acetone for 5 min. The papers were then allowed to air dry for about 20 min. The dried P81 papers were analyzed by liquid scintillation counter.
Figure 6 Inhibition of hit molecules in a radiolabel assay with ^32P-ATP (50 µM) and biotinylated-LYNtide (50 µM) as substrates.

[17] = test system: c-Src; details: cited from earlier work
[18] = other: Table S3, ADP-Glo assay of SrcDEL10 derivatives, enzyme Src
[19] = optimal natural peptide sequence for c-Src, reference not given
[20] = c-Src substrates lacking acidic residues, Lam and coworkers

Compound: c-Src (Homo sapiens)
- Km [1]: 13 µM
- kcat [1]: 0.75 s⁻¹
- kcat/Km [1]: 55000 M⁻¹ s⁻¹
- Km [2]: 4.31 µM
- kcat [2]: 0.683 s⁻¹
- kcat/Km [2]: 9. 52 1/min/uM
- Km [3]: 18 µM
- kcat [3]: 0.533 s⁻¹
- kcat/Km [3]: 30000 M⁻¹ s⁻¹
- Km [4]: 3.79 µM
- kcat [4]: 24. 21 1/min
- kcat/Km [4]: 6. 39 1/min/uM
- Km [5]: 28 µM
- kcat [5]: 1.43 s⁻¹
- kcat/Km [5]: 50000 M⁻¹ s⁻¹
- Km [6]: 19 µM
- kcat [6]: 2.5 s⁻¹
- kcat/Km [6]: 130000 M⁻¹ s⁻¹
- Km [7]: 9.68 µM
- kcat [7]: 44. 66 1/min
- kcat/Km [7]: 4. 61 1/min/uM
- Km [8]: 20.7 µM
- kcat [8]: 92. 84 1/min
- kcat/Km [8]: 4. 49 1/min/uM
- Km [9]: 33 µM
- kcat [9]: 5.83 s⁻¹
- kcat/Km [9]: 183000 M⁻¹ s⁻¹
- Km [10]: 15.4 µM
- kcat [10]: 122. 8 1/min
- kcat/Km [10]: 7. 95 1/min/uM
- Km [11]: 18 µM
- kcat [11]: 1.37 s⁻¹
- kcat/Km [11]: 76700 M⁻¹ s⁻¹
- Km [12]: 4.37 µM
- kcat [12]: 89. 33 1/min
- kcat/Km [12]: 20. 56 1/min/uM
- kcat/Km ([13]; other: ADP-Glo assay): 6.9 min⁻¹ µM⁻¹
- Km [13, 18]: 21.1 µM
- kcat [13, 18]: 144. 9 1/min
- kcat/Km [13, 18]: 6. 86 1/min/uM

Compound: O=C(O)C[C@H](NC(=O)c1ccc(CN(CC2CC2)C(=O)CCO)cc1)C(=O)NCCc1ccc(O)cc1 [Src 10-3]
- Vmax [14]: 0.382 µM/min

Compound: N=C(N)NCCC[C@H](NC(=O)CN(Cc1ccco1)C(=O)CCO)C(=O)N(CCc1ccc(O)cc1)Cc1ccc(C(N)=O)cc1 [SrcDEL8]
- ADP generation relative to compound [15]: large molar excess
- IC50 [16]: 96 µM

Compound: EEEIYGIFG
- Km [17, 19]: 14 µM
- kcat [17, 19]: 2.9 s⁻¹

Compound: GIYWHHY [efficient c-Src peptide substrate lacking acidic residues]
- Km [17, 20]: 21 µM

Compound: CCCN(Cc1ccc(C(=O)N[C@@H](CC(=O)O)C(=O)N(CCc2ccc(O)cc2)CC(N)=O)cc1)C(=O)CCO [Src 10-8]
- activity as substrate in ADP-Glo assay (words) ([14]; listed as 10–8): lacked activity altogether
- activity as substrate in ADP-Glo assay (words) ([14]; listed as Src-10-8): No activity
- Km [14]: > 100 µM

Compound: YIYGSFK [efficient c-Src peptide substrate lacking acidic residues]
- Km [17, 20]: 55 µM

Compound: NC(=O)CN(CCCCCCO)C(=O)c1ccc(CNC(=O)[C@H](Cc2ccc(O)cc2)NC(=O)CCc2ccc(O)cc2)cc1 [SrcDEL14]
- ADP generation relative to compound [15]: little turnover
- IC50 [16]: 18 µM

Compound: NC(=O)CN(CCc1ccc(O)cc1)C(=O)[C@H](CC(=O)O)NC(=O)c1cccc(CN(CC2CC2)C(=O)CCO)c1 [Src 10-4]
- Vmax [14]: 0.54 µM/min

Compound: NC(=O)[C@H](Cc1cccnc1)NC(=O)CN(CC1CC1)C(=O)CCc1ccc(O)cc1 [SrcDEL21]
- ADP generation relative to compound [15]: large molar excess

Compound: NC(=O)CN(CCc1ccccc1)C(=O)[C@H](CC(=O)O)NC(=O)c1ccc(CN(CC2CC2)C(=O)CCO)cc1 [Src 10-6]
- activity as substrate in ADP-Glo assay (words) [14]: comparable substrate to the parental compound

Compound: NC(=O)C(Cc1cccnc1)NC(=O)CN(CCc1ccc(O)cc1)C(=O)C1Cc2c([nH]c3ccccc23)CN1C(=O)CCO (centres unmarked) [SrcDEL5]
- ADP generation relative to compound [15]: large molar excess
- IC50 [16]: 64 µM

Compound: C[C@H](NC(=O)c1ccc(CN(CC2CC2)C(=O)CCO)cc1)C(=O)N(CCc1ccc(O)cc1)CC(N)=O [Src 10-2]
- Vmax [14]: 0.492 µM/min

Compound: NC(=O)CN(Cc1cccc(O)c1)C(=O)[C@H](CC(=O)O)NC(=O)c1ccc(CN(CC2CC2)C(=O)CCO)cc1 [Src 10-10]
- Km [14]: > 100 µM

Compound: NC(=O)C(Cc1ccc(O)cc1)NC(=O)CN(CCCCCCO)C(=O)C1Cc2ccccc2N1C(=O)CCc1ccc(O)cc1 (centres unmarked) [SrcDEL16]
- ADP generation relative to compound [15]: little turnover
- IC50 [16]: 26 µM

Compound: CC(=O)N(Cc1ccc(C(=O)N[C@@H](CC(=O)O)C(=O)N(CCc2ccc(O)cc2)CC(N)=O)cc1)CC1CC1 [Src 10-9]
- Km [14]: > 100 µM
